Assay results reported in the supplement of paper PMC9112550, “Optimization of the antimicrobial peptide Bac7 by deep mutational scanning” (BMC Biology, 2022).

Each sequence was assayed on Escherichia coli TOP10 (assay: shrunken log2 fold change of peptide-encoding DNA abundance (4.5 h post-induction vs induction); higher = less antimicrobial activity (less host growth inhibition)). Conditions: time post-induction: 4.5 h; library: site-saturation at positions 5, 18, 19, 20.
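Further: peptides expressed intracellularly from a pBAD plasmid library in pooled LB shake-flask culture, induced with 0.3% L-arabinose, DNA abundance read by NGS, three biological replicates, DESeq2 with apeglm shrinkage.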

| Sequence | shrunken log2 fold change |
| --- | --- |
| RRIRRRPPRLPRPRPRPGYPPRP | 0.00327 |
| RRIRYRPPRLPRPRPRPHNCPRP | -0.381 |
| RRIRCRPPRLPRPRPRPYNDPRP | -0.456 |
| RRIRGRPPRLPRPRPRPSNTPRP | -0.023 |
| RRIRARPPRLPRPRPRPPCDPRP | 0.506 |
| RRIRKRPPRLPRPRPRPMNTPRP | -0.287 |
| RRIRPRPPRLPRPRPRPVFDPRP | 0.342 |
| RRIRGRPPRLPRPRPRPTVNPRP | 0.597 |
| RRIRHRPPRLPRPRPRPMDIPRP | -0.00136 |
| RRIRVRPPRLPRPRPRPWWIPRP | -0.202 |
| RRIRKRPPRLPRPRPRPAFYPRP | 0.114 |
| RRIRRRPPRLPRPRPRPPVMPRP | 0.403 |
| RRIRSRPPRLPRPRPRPGIPPRP | -0.00461 |
| RRIRVRPPRLPRPRPRPVWKPRP | 0.0859 |
| RRIRHRPPRLPRPRPRPPKYPRP | -0.349 |
| RRIRIRPPRLPRPRPRPMHHPRP | -0.4 |
| RRIRDRPPRLPRPRPRPAAPPRP | 0.545 |
| RRIRWRPPRLPRPRPRPNDQPRP | 0.0201 |
| RRIRFRPPRLPRPRPRPLDPPRP | 0.0688 |
| RRIRLRPPRLPRPRPRPPRMPRP | 0.232 |
| RRIRHRPPRLPRPRPRPSTFPRP | -0.0458 |
| RRIRARPPRLPRPRPRPMIMPRP | -0.0807 |
| RRIRNRPPRLPRPRPRPAPQPRP | 0.182 |
| RRIRERPPRLPRPRPRPVWFPRP | -0.0467 |
| RRIRVRPPRLPRPRPRPKSMPRP | -0.362 |

| Sequence | shrunken log2 fold change |
| --- | --- |
| RRIRMRPPRLPRPRPRPKMMPRP | 0.351 |
| RRIRNRPPRLPRPRPRPNCTPRP | -0.191 |
| RRIRLRPPRLPRPRPRPGYIPRP | -0.41 |
| RRIRDRPPRLPRPRPRPIHSPRP | -0.00999 |
| RRIRQRPPRLPRPRPRPISGPRP | -0.018 |
| RRIRIRPPRLPRPRPRPVKMPRP | -0.173 |
| RRIRLRPPRLPRPRPRPHMFPRP | -0.356 |
| RRIRHRPPRLPRPRPRPLYDPRP | -0.738 |
| RRIRFRPPRLPRPRPRPTPAPRP | 0.951 |
| RRIRCRPPRLPRPRPRPHTMPRP | -0.371 |
| RRIRWRPPRLPRPRPRPFELPRP | -0.285 |
| RRIRNRPPRLPRPRPRPVSLPRP | -0.396 |
| RRIRDRPPRLPRPRPRPIMFPRP | 0.0387 |
| RRIRHRPPRLPRPRPRPVARPRP | 0.227 |
| RRIRYRPPRLPRPRPRPKMTPRP | -0.728 |
| RRIRWRPPRLPRPRPRPPSWPRP | 1.32 |
| RRIRSRPPRLPRPRPRPNIQPRP | -0.28 |
| RRIRVRPPRLPRPRPRPHWHPRP | -0.0411 |
| RRIRCRPPRLPRPRPRPTFRPRP | 0.0981 |
| RRIRIRPPRLPRPRPRPILNPRP | -0.73 |
| RRIRFRPPRLPRPRPRPCFTPRP | -0.237 |
| RRIRKRPPRLPRPRPRPWRMPRP | 0.0773 |
| RRIRDRPPRLPRPRPRPQMVPRP | -0.0637 |
| RRIRVRPPRLPRPRPRPHCKPRP | -0.299 |
| RRIRDRPPRLPRPRPRPIPIPRP | -0.0457 |

| Sequence | shrunken log2 fold change |
| --- | --- |
| RRIRQRPPRLPRPRPRPFPVPRP | 0.0568 |
| RRIRHRPPRLPRPRPRPCHRPRP | -0.126 |
| RRIRYRPPRLPRPRPRPDSTPRP | -0.112 |
| RRIRSRPPRLPRPRPRPHDTPRP | -0.156 |
| RRIRIRPPRLPRPRPRPMGAPRP | -0.341 |
| RRIRERPPRLPRPRPRPTATPRP | 0.259 |
| RRIRSRPPRLPRPRPRPWSEPRP | -0.196 |
| RRIRARPPRLPRPRPRPNMRPRP | 0.25 |
| RRIRWRPPRLPRPRPRPDKEPRP | 0.0411 |
| RRIRTRPPRLPRPRPRPSNNPRP | -0.639 |
| RRIRARPPRLPRPRPRPSYFPRP | -0.555 |
| RRIRGRPPRLPRPRPRPTGLPRP | 0.885 |
| RRIRVRPPRLPRPRPRPDPTPRP | 0.106 |
| RRIRLRPPRLPRPRPRPWKVPRP | 0.0854 |
| RRIRWRPPRLPRPRPRPDVFPRP | 0.019 |
| RRIRLRPPRLPRPRPRPIIRPRP | -0.19 |
| RRIRYRPPRLPRPRPRPLARPRP | -0.265 |
| RRIRLRPPRLPRPRPRPYGWPRP | -0.265 |
| RRIRNRPPRLPRPRPRPYCTPRP | -0.169 |
| RRIRIRPPRLPRPRPRPGAGPRP | 0.29 |
| RRIRNRPPRLPRPRPRPKHAPRP | 0.0877 |
| RRIRARPPRLPRPRPRPYAHPRP | -0.149 |
| RRIRYRPPRLPRPRPRPDNNPRP | -0.189 |
| RRIRMRPPRLPRPRPRPRYVPRP | -0.18 |
| RRIRGRPPRLPRPRPRPVLQPRP | 0.142 |
